Reference: article PMC5789952 (Proceedings of the National Academy of Sciences of the …, 2017)

Columns and labels:
IRF9–IAD_(182–385) = molecular target: T1, IRF9–IAD_(182–385) (mouse, UniProt Q61179 182-385); experiment: SEC
T1 sequence (looked up): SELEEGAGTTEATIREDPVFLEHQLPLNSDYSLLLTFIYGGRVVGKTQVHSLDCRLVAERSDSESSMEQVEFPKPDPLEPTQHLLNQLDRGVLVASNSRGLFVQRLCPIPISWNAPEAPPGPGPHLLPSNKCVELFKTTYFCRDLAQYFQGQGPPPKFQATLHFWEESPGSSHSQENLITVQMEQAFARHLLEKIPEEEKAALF

[1] = molecular target: T2, STAT2 (133–748) of the purified STAT1–STAT2 heterodimer (mouse, UniProt Q9WVL2 133-748); experiment: tandem affinity co-purification
T2 sequence (looked up): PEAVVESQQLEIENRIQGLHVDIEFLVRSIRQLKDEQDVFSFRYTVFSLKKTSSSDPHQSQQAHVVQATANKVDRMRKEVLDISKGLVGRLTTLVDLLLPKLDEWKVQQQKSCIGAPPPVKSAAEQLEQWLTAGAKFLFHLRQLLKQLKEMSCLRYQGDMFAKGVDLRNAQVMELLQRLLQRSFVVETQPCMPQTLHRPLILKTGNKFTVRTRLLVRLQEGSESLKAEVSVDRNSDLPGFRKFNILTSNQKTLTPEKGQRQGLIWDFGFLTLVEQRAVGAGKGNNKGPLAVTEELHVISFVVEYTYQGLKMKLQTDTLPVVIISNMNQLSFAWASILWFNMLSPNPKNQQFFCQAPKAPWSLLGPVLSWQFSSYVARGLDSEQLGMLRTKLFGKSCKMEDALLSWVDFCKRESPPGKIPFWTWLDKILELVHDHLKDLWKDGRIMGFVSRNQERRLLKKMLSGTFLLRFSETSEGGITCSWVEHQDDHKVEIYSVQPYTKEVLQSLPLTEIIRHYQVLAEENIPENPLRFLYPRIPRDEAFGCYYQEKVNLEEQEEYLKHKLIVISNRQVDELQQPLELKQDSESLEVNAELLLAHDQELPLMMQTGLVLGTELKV

STAT2_(133–679) = molecular target: T3, STAT2_(133–679) (mouse, UniProt Q9WVL2 133-679); experiment: SEC-MALS
T3 sequence (looked up): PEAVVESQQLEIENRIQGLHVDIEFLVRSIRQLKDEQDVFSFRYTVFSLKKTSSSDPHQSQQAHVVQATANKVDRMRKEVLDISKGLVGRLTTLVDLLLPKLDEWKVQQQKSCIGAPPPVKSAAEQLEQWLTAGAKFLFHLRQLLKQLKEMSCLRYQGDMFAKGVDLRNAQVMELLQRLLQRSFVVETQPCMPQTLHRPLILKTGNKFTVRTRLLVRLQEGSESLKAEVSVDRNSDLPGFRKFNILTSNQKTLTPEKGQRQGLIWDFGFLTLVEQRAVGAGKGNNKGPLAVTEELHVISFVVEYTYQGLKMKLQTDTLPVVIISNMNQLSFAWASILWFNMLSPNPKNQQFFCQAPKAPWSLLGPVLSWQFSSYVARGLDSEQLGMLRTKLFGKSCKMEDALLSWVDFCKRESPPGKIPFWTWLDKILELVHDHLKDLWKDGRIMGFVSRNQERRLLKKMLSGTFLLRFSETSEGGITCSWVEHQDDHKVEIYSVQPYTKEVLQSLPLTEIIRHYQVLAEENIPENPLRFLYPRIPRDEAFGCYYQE

IRF9-DBD = molecular target: T4, IRF9-DBD (Mus musculus, UniProt Q61179 1-116); experiment: EMSA
T4 sequence: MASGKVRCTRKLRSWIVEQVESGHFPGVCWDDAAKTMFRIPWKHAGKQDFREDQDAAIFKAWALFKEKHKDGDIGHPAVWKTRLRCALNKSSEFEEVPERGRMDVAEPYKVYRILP

B1: STAT2_(133–315) (domain or fragment, mouse, UniProt Q9WVL2 133-315, looked up)
chain: PEAVVESQQLEIENRIQGLHVDIEFLVRSIRQLKDEQDVFSFRYTVFSLKKTSSSDPHQSQQAHVVQATANKVDRMRKEVLDISKGLVGRLTTLVDLLLPKLDEWKVQQQKSCIGAPPPVKSAAEQLEQWLTAGAKFLFHLRQLLKQLKEMSCLRYQGDMFAKGVDLRNAQVMELLQRLLQRS
- binding result (IRF9–IAD_(182–385)): binds

B2: STAT1 (136–713) of the purified STAT1–STAT2 heterodimer (domain or fragment, mouse, UniProt P42225 136-713, looked up)
chain: LDKQKELDSKVRNVKDQVMCIEQEIKTLEELQDEYDFKCKTSQNREGEANGVAKSDQKQEQLLLHKMFLMLDNKRKEIIHKIRELLNSIELTQNTLINDELVEWKRRQQSACIGGPPNACLDQLQTWFTIVAETLQQIRQQLKKLEELEQKFTYEPDPITKNKQVLSDRTFLLFQQLIQSSFVVERQPCMPTHPQRPLVLKTGVQFTVKSRLLVKLQESNLLTKVKCHFDKDVNEKNTVKGFRKFNILGTHTKVMNMEESTNGSLAAELRHLQLKEQKNAGNRTNEGPLIVTEELHSLSFETQLCQPGLVIDLETTSLPVVVISNVSQLPSGWASILWYNMLVTEPRNLSFFLNPPCAWWSQLSEVLSWQFSSVTKRGLNADQLSMLGEKLLGPNAGPDGLIPWTRFCKENINDKNFSFWPWIDTILELIKNDLLCLWNDGCIMGFISKERERALLKDQQPGTFLLRFSESSREGAITFTWVERSQNGGEPDFHAVEPYTKKELSAVTFPDIIRNYKVMAAENIPENPLKYLYPNIDKDHAFGKYYSRPKEAPEPMELDDPKRTGYIKTELISVSEVH
- binding result [1]: binds

B3: IRF9_(182–399) (domain or fragment, mouse, UniProt Q61179 182-399, looked up)
chain: SELEEGAGTTEATIREDPVFLEHQLPLNSDYSLLLTFIYGGRVVGKTQVHSLDCRLVAERSDSESSMEQVEFPKPDPLEPTQHLLNQLDRGVLVASNSRGLFVQRLCPIPISWNAPEAPPGPGPHLLPSNKCVELFKTTYFCRDLAQYFQGQGPPPKFQATLHFWEESPGSSHSQENLITVQMEQAFARHLLEKIPEEEKAALFLLQHTEQSPSALGH
- stoichiometry N (STAT2_(133–679)): 1

B4: ADAR ISRE 29 bp (dsDNA)
DNA 1: TAAGCCTTTTCAAGGAAACGAAAGTGAAC
DNA 2: AGTTCACTTTCGTTTCCTTGAAAAGGCTT
- binding result (IRF9-DBD): binds
